Data reported in patent US5876691A, “Antibody against carcionembryonic antigen (CEA)” (Cancer Research Campaign Technology Limited, priority 1993, dated 1999).

Tests used:
[1] = biological target: carcinoembryonic antigen (CEA) (human) (UniProt P06731); assay: 125I-labelled scFv applied to a 1 ml CEA/Sepharose column (1 mg CEA)
[2] = biological target: carcinoembryonic antigen (CEA) (human) (UniProt P06731); assay: CEA column, after radiolabelling with 125I
[3] = biological target: carcinoembryonic antigen (CEA) (human) (UniProt P06731); assay: unbound fraction of 125I-MFE-23 His reapplied to the CEA column
[4] = biological target: carcinoembryonic antigen (CEA) (human) (UniProt P06731); assay: 125I-labelled scFv applied to a CEA coupled Sepharose 4B column, gamma counting
[5] = biological target: carcinoembryonic antigen (CEA) (human) (UniProt P06731); assay: known amount of antibody applied to the CEA affinity column after 6 months storage at 4 C
[6] = biological target: carcinoembryonic antigen (CEA) (human) (UniProt P06731); assay: IMAC purified MFE-23 His, 1 mg applied to the CEA affinity column after 6 months storage at 4 C
[7] = biological target: carcinoembryonic antigen (CEA) (human) (UniProt P06731); assay: IMAC purified MFE-23 His, 2 mg applied to the CEA affinity column after 6 months storage at 4 C
[8] = biological target: carcinoembryonic antigen (CEA) (human) (UniProt P06731); assay: IMAC purified MFE-23 His, 0.5 mg applied to the CEA affinity column after 6 months storage at 4 C
[9] = biological target: carcinoembryonic antigen (CEA) (human) (UniProt P06731); assay: MFE-23 His purified by CEA antigen affinity chromatography, 1 mg applied to the CEA affinity column
[10] = biological target: carcinoembryonic antigen (CEA) (human) (UniProt P06731); assay: CEA affinity column, after 6 months storage at 4 C, compared with MFE-23 His purified on the same column
[11] = biological target: carcinoembryonic antigen (CEA) (human) (UniProt P06731); assay: 125I-labelled scFv applied to a CEA coupled Sepharose 4B column, gamma counting; total recovered 1710 cpm
[12] = biological target: carcinoembryonic antigen (CEA) (human) (UniProt P06731); assay: fluorescence quench, purified soluble scFv
[13] = biological target: carcinoembryonic antigen (CEA) (human) (UniProt P06731); assay: summary of the affinity comparison with A5B7
[14] = biological target: carcinoembryonic antigen (CEA) (human) (UniProt P06731); assay: radiolabelled scFv applied to a CEA coupled Sepharose 4B column, gamma counting
[15] = biological target: carcinoembryonic antigen (CEA) (human) (UniProt P06731); assay: 99mTc-labelled MFE-cys applied to a 1 ml CEA/Sepharose column (1 mg CEA), bound material eluted with 3M ammoniumthiocyanate
[16] = biological target: carcinoembryonic antigen (CEA) (human) (UniProt P06731); assay: radiolabelled control scFv applied to a CEA coupled Sepharose 4B column, gamma counting
[17] = biological target: carcinoembryonic antigen (CEA) (human) (UniProt P06731); assay: fluorescence quench
[18] = biological target: T1, CEA (Homo sapiens, UniProt P06731); assay: Dissociation constant (Kd) by fluorescence quench; details: binding to CEA
T1 sequence (P06731 35-702): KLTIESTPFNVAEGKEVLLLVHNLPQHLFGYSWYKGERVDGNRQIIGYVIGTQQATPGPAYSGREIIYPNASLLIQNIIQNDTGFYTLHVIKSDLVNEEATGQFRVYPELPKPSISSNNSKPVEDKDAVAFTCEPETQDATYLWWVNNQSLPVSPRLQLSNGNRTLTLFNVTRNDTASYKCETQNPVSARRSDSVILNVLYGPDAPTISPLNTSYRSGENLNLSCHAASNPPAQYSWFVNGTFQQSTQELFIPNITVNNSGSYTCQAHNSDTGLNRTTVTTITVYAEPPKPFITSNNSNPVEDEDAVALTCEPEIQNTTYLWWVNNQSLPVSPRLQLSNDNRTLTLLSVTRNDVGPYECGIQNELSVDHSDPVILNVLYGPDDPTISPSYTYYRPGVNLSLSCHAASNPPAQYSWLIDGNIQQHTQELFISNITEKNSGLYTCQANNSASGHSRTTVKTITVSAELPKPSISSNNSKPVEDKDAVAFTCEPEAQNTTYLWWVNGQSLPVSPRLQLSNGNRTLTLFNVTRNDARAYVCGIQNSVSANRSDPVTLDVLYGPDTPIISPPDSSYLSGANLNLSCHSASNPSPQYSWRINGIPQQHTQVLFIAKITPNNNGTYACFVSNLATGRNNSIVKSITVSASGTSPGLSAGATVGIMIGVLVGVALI
Source text: (§1) MFE-23 was subcloned for expression as a soluble scFv linked to a C-terminal myc tag to aid identification during protein purification. […] The specificity against a range of normal human tissues was examined and the only reactivity was weak and with normal large bowel--this is in contrast to many anti-CEA monoclonal antibodies which commonly show cross reaction with a variety of normal tissues^7.

[19] = system: human colorectal adenocarcinomas; assay: Immunohistochemistry with purified scFv on colorectal adenocarcinomas; assay type: binding; details: second antibody against myc tag, positive/tested tumours
Source text: as §1

[20] = system: normal human tissues; assay: Immunohistochemistry specificity against normal human tissues; assay type: binding
Source text: as §1

[21] = system: LS174T human colorectal tumour xenografts; assay: Tumour localisation in vivo, Example 1; set-up: species or system nude mice; details: 125 Iodine labelled, FIG. 2, 29 and 35 hours after injection
Source text: Tumour localisation in vivo was studied using LS174T human colorectal tumour xenografts in nude mice.

[22] = Isoelectric focusing (pI of scFvs); assay type: physicochemical; details: Amphaline PAG plate pH 3.5-9.5
Source text: The isoelectric focusing points of the scFvs were obtained using an Amphaline PAG plate pH 3.5-9.5 (Pharmacia) in accordance with manufacturers instructions.

[23] = Stability of radiolabelled product by gel filtration on S-100 / SDS PAGE; assay type: physicochemical; details: 125-I labelled, gel filtration on S-100
[24] = biological target: T1, CEA; assay: CEA binding of radiolabelled product on CEA/Sepharose column
Experimental: 75 μg of A5-SC and MFE-23 were iodinated with 0.5 mCi of 125-I using the Chloramine T/L-Tyrosine method^20. […] The stability of the radiolabelled products was tested by gel filtration on S-100.
MFE-cys was radiolabelled with ^99m Tc using a ^99m Tc-D-glucarate transfer method^22. 1 ml of ^99m Tc sodium pertechnetate (40.5 mCi) was added to 12.5 mg of monopotassium D-glucarate, 16.8 mg of sodium bicarbonate and 100 μg of stannous chloride (stannous chloride was made up directly before use at a concentration of 0.2 mg/ml). This solution was left for 1 min at room temperature. Then 0.5 ml was mixed with 200 μg MFE-cys in PBS/1 mM EDTA. The mixture was incubated at room temperature for 30 min and then applied to a PD 10 column (Pharmacia; primed with 3% human serum albumin in PBS) to separate the radiolabelled protein from the free pertechnetate. The efficiency of ^99m Tc uptake was tested by thin layer chromatography, using acetonitrile/water (30:20) as running solvent. An aliquot (100 μl) of diluted radiolabelled scFv (1:30 in PBS/Tween 20) was applied to a 1 ml CEA-sepharose column, containing 1 mg of CEA, to test CEA-binding. The column was washed with 8 volumes of PBS/0.05% Tween 20 and bound material was obtained by adding 3M ammoniumthiocyanate. Further, the stability of the labelled scFv was tested by applying the product (diluted 1:30) to Sephacryl S-100. To test the stability of the radiolabelled product in vivo serum taken from mice injected with the labelled scFv 24 h after administration was also applied to Sephacryl S-100. Stability of the ^99m Tc-labelled product was also tested by gel autoradiography as follows: radiolabelled MFE-cys was subjected to SDS-PAGE using a 15% non-reducing acrylamide gel. The protein was then Western blotted onto Immobilon P (Millipore), and visualised by autoradiography using Kodak X-Omatic cassette and Hyperfilm-MP film (Amersham).
Thin layer chromatography (TLC) was performed to measure % ^125 I incorporation. Antigen binding was also assessed by applying a dilution of the radiolabel to a CEA coupled Sepharose 4B (1 mg CEA; 1 ml column volume). The unbound fraction was washed through with 2 column volumes of PBS and the bound fraction with the same volume of 3M ammonium thiocyanate. A control scFv B1.8 which is not specific for CEA and MFE-23 containing a c-myc tag (MFE-23 myc) were tested as a comparison. The unbound and bound fractions were analysed for ^125 I activity using a gamma counter. Stability assessments were carried out by applying a sample of the radiolabel and unlabelled product to a 15% SDS PAGE minigel. The ^125 I-MFE-23 His was visualised by autoradiography and the unlabelled product by Coomassie blue staining. ^125 I-MFE-23 His was also applied to a 100 ml Sephacryl S-100 column (115×1 cm). 1.5 ml fractions were collected and counted for ^125 I activity.

[25] = system: LS174T human colorectal carcinoma xenograft; assay: Xenograft biodistribution study, Example 2; assay type: in vivo, nude mice; details: for percent injected activity per gram of tissue, tumour: 125-I labelled, i.v. tail vein
Experimental: Radiolabelled antibody was administered via the tail vein of nude mice bearing the LS174T human colorectal carcinoma xenograft^21. Each mouse received 4.3 μg/30.12 μCi of A5-SC or 4.3 μg/7.73 μCi of MFE-23. Mice were sacrificed at 24 h and 48 h, and tissues were removed and assessed for activity using a gamma counter. 4 mice were used for each time point.

Molecule: A5-SC (scFv derived from monoclonal antibody A5B7)
- percent of counts recovered [1]: 30.8%

Molecule: MFE-23 His (MFE-23 scFv containing 6xHis at the C-terminus)
- antigen binding retained [2]: > 75%
- percent of loaded counts in the bound fraction on reapplication [3]: 58%
- percent of recovered counts in the bound fraction [4]: 75%
- mean % bound specific activity [5]: 75%
- Bound [6]: 0.68 mg
- Specific activity (%) [6]: 75%
- Bound [7]: 0.76 mg
- Specific activity (%) [7]: 69%
- Bound [8]: 0.4 mg
- Specific activity (%) [8]: 81%
- Bound [9]: 0.83 mg
- Specific activity (%) [9]: 89%
- antigen binding retained [10]: 84%
- counts in the bound fraction [11]: 1280 cpm

Molecule: MFE-23 soluble scFv linked to a C-terminal myc tag
- Kd [12]: 2.5 nM
- fold affinity against A5B7 [13]: 10 times
- percent of counts recovered [1]: 38.7%
- counts bound to the column [14]: 23000 cpm
- percent of recovered counts bound to the column [14]: 56%

Molecule: MFE-cys (cysteine-tagged MFE-23 scFv)
- percent of counts recovered in the bound fraction [15]: 55%

Molecule: control scFv B1.8
- counts bound to the column [16]: 1300 cpm
- percent of recovered counts bound to the column [16]: 10%

Molecule: A5B7 monoclonal anti-CEA antibody
- Kd [17]: 25 nM

B1: MFE-23: anti-CEA single chain Fv selected from a bacteriophage library, sequence of FIG. 3 (SEQ ID No. 2) (protein)
scFv: ETVIMKYLLPTAAAGLLLLAAQPAMAQVKLQQSGAELVRSGTSVKLSCTASGFNIKDSYMHWLRQGPEQGLEWIGWIDPENGDTEYAPKFQGKATFTTDTSSNTAYLQLSSLTSEDTAVYYCNEGTPTGPYYFDYWGQGTTVTVSSGGGGSGGGGSGGGGSENVLTQSPAIMSASPGEKVTITCSASSSVSYMHWFQQKPGTSPKLWIYSTSNLASGVPARFSGSGSGTSYSLTISRMEAEDAATYYCQQRSSYPLTFGAGTKLELKRAA
- Kd [18]: 2.5 ± 1.3 nM
- typical CEA-reactive pattern in human colorectal adenocarcinomas [19]: 10/10
- binding to normal tissues ([20]; liver, kidney, large intestine, tonsil, lung, brain, testis, ovary, cervix, breast, blood films, placenta, spleen, thyroid, oesophagus, stomach, pancreas, lymph node, skeletal muscle): did not bind
- reactivity with normal large bowel ([20]; only reactivity seen in range of normal human tissues): weak
- tumour imaging (gamma camera) [21]: only tumours are visible
- pI [22]: 4.5-5.5
- stability after iodination, S-100 elution profile [23]: one peak
- percent of counts recovered on binding to CEA/Sepharose ([24]; 125-I radiolabelled products, Example 2): 38.7%
- counts in bound fraction of CEA column, % of total counts recovered ([24]; 125I radiolabelled, Example 5): 56%
- counts in unbound fraction of CEA column, % of total counts recovered ([24]; 125I radiolabelled, Example 5): 43%
- percent injected activity per gram of tissue, tumour ([25]; 24 hours): 3.2%
- percent injected activity per gram of tissue, tumour ([25]; 48 hours): 1.2%
- localisation in liver and spleen ([25]; in contrast with A5-SC): did not show localisation
